Measured values as given in patent US20220362278A1, “RENAL TARGETING-TYPE DRUG DELIVERY CARRIER HAVING EXCELLENT BIODEGRABILITY” (priority 2019, published 2022).

Tests used:
[1] = Acute kidney toxicity after administration; format: in vivo, ddY mouse; details: positive control, 8 mg/kg s.c., bred for 2 days
Procedure: The severity of renal damage was evaluated from the plasma creatinine level and plasma urea nitrogen concentration 6 days after the start of administration. The plasma creatinine concentration was measured using a commercially available measurement kit (LabAssay, manufactured by Wako Pure Chemical Industries, Ltd.). Plasma urea nitrogen concentration was measured using a commercially available measurement kit (DIUR-100, manufactured by BioAssySystem). Mercury chloride was subcutaneously injected at 8 mg/kg, the group bred for 2 days was used as a positive control, and the results were compared.

[2] = Mean particle size and zeta potential by Zetasizer Nano ZS; format: physicochemical; details: for physicochemical properties (particle size and zeta potential) of the labeled compound versus the unlabeled compound: stated in words
From the text: 1.1 equivalents of Boc-Ser(t-Bu)-OH (manufactured by Watanabe Chemical Industries, Ltd.), 1.1 equivalents of 1-[bis(dimethylamino)methylene]-1H-benzotriazolium 3-oxide hexafluorophosphate (HBTU) (manufactured by Merck Millipore), 1.1 equivalents of anhydrous 1-hydroxy-1H-benzotriazole (HOBt) (manufactured by Watanabe Chemical Industries, Ltd.) and 2.2 equivalents of N,N-diisopropyl ethylamine (DIPEA), each to the total number of amino groups of poly-L-lysine hydrobromide (manufactured by Sigma-Aldrich Co. LLC., P6516-100M, number average molecular weight: 4000-15000) were mixed in DMF/DMSO (1:1). Then, the reaction mixture was reacted by stirring at room temperature until the ninhydrin test yielded negative results on TLC analysis. After completion of coupling, this solution was purified by precipitation with diethylether three times. The precipitates thereof were dissolved in a trifluoroacetic acid (TFA) cocktail (95% TFA, 2.5% […] (TIS) and 2.5% purified water) to deprotect the Boc group and t-Bu group (protecting group of oxygen atom of serine). Then, the reaction mixture was incubated at room temperature for 90 min. After completion of deprotection, the reaction mixture was purified by precipitation with diethylether three times.

B16-BL6/Luc cells = assay: Renal cell carcinoma proliferation suppressive activity in renal cell carcinoma model mouse; format: in vivo, C57BL/6J mouse
Procedure: The renal cell carcinoma model was produced by injecting firefly luciferase gene-labeled B16-BL6 cells (B16-BL6/Luc cells, 2.5×10^5 cells) together with Matigel (registered trade mark) Matrix in the renal cortex of the right kidney of C57BL/6J mouse. […] 14 days after tumor inoculation, 2.5 mg of D-Luciferin was intraperitoneally injected into the mouse under anesthesia by intraperitoneal injection of triple anesthesia (medetomidine (0.3 mg/kg), midazolam (2 mg/kg), butorphanol (2.5 mg/kg)), and imaged using LAS-4000 IVIS Imaging System (FUJIFILM, Japan). Then, the mouse was euthanized, the kidneys were isolated, and the luciferase activity in the tissue was measured with a luminometer (Lumat LB9507, EG&G Berthold, Bad Wild-bad, Germany). From the obtained luciferase activity, the number of cancer cells in the kidney was calculated using a regression line. In addition, the body weight of the mouse was measured immediately after the tumor inoculation administration and 14 days after the tumor inoculation.

[3] = Releasability of serine and biodegradability: PD-10 fractionation of kidney homogenate radioactivity; details: 3 hr after intravenous administration
Procedure: The kidney after blood removal was immediately ice-cooled, purified water (4 mL) was added and homogenized. A saturated potassium chloride solution (1 mL) was added to the prepared kidney homogenate, and the mixture was allowed to stand at 4° C. overnight and then centrifuged. The centrifuged supernatant (1 mL) was developed on a PD-10 column with 0.1 M acetate buffer (pH 6.0), and the radioactivity of the fraction was measured.

Molecule: [Cl][Hg][Cl] [mercury chloride, Mercury chloride]
- plasma creatinine level ([1]; FIG. 8(A)): increase
- plasma urea nitrogen concentration ([1]; FIG. 8(B)): increase
- histological section of kidney tissue ([1]; FIG. 8(C)): infiltration and necrosis of inflammatory cells and damaged cells were observed

Molecule: FITC-labeled serine-modified poly-L-lysine [FITC-labeled compound (Ia)]
- physicochemical properties (particle size and zeta potential) of the labeled compound versus the unlabeled compound [2]: the same as those of compound (Ia)

Molecule: ^90Y-labeled serine-modified poly-L-lysine [^90Y-labeled compound (Ia)]
- luciferase luminescence derived from cancer cells (B16-BL6/Luc cells; 14 days after tumor inoculation, vs PBS, FIG. 9(B)): remarkably suppressed as compared with that of mouse administered with PBS
- growth of the number of cancer cells in the kidney (B16-BL6/Luc cells; i.v. immediately after tumor inoculation, 14 days after inoculation, vs PBS, FIG. 9(A)): remarkably suppressed
- body weight of mouse (B16-BL6/Luc cells; immediately after and 14 days after tumor inoculation, FIG. 9(C)): did not affect

Molecule: ^111In-labeled PAMAM(G3)
- mean particle size ([2]; PBS (pH 7.4), 1 mg/mL): 4.20±0.09 nm
- zeta potential ([2]; PBS (pH 7.4), 1 mg/mL): 4.56±0.81 mV
- physicochemical properties (particle size and zeta potential) of the labeled compound versus the unlabeled compound [2]: also the same

Molecule: ^111In-labeled poly-L-lysine
- decomposition in the kidney [3]: easily decomposed in the kidney
- radioactivity in high / low molecular weight fraction, kidney homogenate ([3]; PD-10 column): mainly on the low molecular weight fraction side
- physicochemical properties (particle size and zeta potential) of the labeled compound versus the unlabeled compound [2]: the same as those of poly-L-lysine

Molecule: ^111In-labeled serine-modified PAMAM(G3)
- physicochemical properties (particle size and zeta potential) of the labeled compound versus the unlabeled compound [2]: also the same

Molecule: ^111In-labeled serine-modified poly-L-lysine [^111In-labeled compound (Ia)]
- physicochemical properties (particle size and zeta potential) of the labeled compound versus the unlabeled compound [2]: the same as those of compound (Ia)
